Key:
[1] = target: T1, 5HT3a (Homo sapiens, UniProt P46098); test: Ion channel panel (IonWorks Barracuda): 5HT3a; assay type: cell-based
T1 construct: host or cells: HEK293 or CHO
T1 sequence (P46098 whole entry, looked up): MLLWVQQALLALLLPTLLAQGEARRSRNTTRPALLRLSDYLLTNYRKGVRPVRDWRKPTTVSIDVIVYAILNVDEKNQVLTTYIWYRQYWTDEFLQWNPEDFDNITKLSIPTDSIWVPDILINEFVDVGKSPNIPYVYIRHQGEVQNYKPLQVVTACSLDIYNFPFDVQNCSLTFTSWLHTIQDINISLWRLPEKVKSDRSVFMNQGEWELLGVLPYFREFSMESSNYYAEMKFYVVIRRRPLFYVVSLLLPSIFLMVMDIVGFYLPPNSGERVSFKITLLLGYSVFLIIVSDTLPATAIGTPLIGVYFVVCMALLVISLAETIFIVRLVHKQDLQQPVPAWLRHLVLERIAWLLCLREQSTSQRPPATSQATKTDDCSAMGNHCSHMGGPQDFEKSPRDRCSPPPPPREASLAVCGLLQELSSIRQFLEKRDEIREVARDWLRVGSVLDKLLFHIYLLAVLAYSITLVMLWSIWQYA
Method in brief: (§1)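 Transfected HEK293 or CHO cells were exposed for at least 5 min to peptides at 200 nM and 20 μM final, tested in duplicate, in HEPES-buffered physiological saline. Activation was taken as peptide-plus-agonist current over control current ×100, and inhibition as 1 minus that ratio ×100. Each channel's control was its own reference compound.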

[2] = target: T2, α3β4 (Homo sapiens, UniProt P30926+P32297); test: Ion channel panel (IonWorks Barracuda): α3β4; assay type: cell-based; settings: 100% = no change, <100% = inhibition
T2 construct: host or cells: HEK293 or CHO
Method in brief: as §1

[3] = target: T3, α4β2 (Homo sapiens, UniProt P17787+P43681); test: Ion channel panel (IonWorks Barracuda): α4β2; assay type: cell-based; settings: 100% = no change, <100% = inhibition
T3 construct: host or cells: HEK293 or CHO
Method in brief: as §1

[4] = target: T4, Cav2.1 (Homo sapiens, UniProt O00555); test: cell-based; settings: 100% = no change, <100% = inhibition
T4 construct: host or cells: HEK293 or CHO
Method in brief: as §1

[5] = target: T5, Cav2.2 (Homo sapiens, UniProt Q00975); test: cell-based; settings: 100% = no change, <100% = inhibition
T5 construct: host or cells: HEK293 or CHO
Method in brief: as §1

[6] = target: T6, Kv2.1 (Homo sapiens, UniProt Q14721); test: cell-based; settings: 100% = no change, <100% = inhibition
T6 construct: host or cells: HEK293 or CHO
Method in brief: as §1

[7] = tested on: GABA; test: Ion channel panel (IonWorks Barracuda): GABA; assay type: cell-based; settings: 100% = no change, <100% = inhibition
Method in brief: as §1

[8] = target: Nav1.5 (Homo sapiens, UniProt Q14524); test: in vitro; settings: 100% = no change; for Activity of Nav1.5 with peptide, expressed as a percentage of the reference compound: peptide at 0.2 μM; for Activity of Nav1.5 with peptide (percentage of the reference compound): peptide at 20 μM
Chain of Nav1.5 (Q14524 whole entry): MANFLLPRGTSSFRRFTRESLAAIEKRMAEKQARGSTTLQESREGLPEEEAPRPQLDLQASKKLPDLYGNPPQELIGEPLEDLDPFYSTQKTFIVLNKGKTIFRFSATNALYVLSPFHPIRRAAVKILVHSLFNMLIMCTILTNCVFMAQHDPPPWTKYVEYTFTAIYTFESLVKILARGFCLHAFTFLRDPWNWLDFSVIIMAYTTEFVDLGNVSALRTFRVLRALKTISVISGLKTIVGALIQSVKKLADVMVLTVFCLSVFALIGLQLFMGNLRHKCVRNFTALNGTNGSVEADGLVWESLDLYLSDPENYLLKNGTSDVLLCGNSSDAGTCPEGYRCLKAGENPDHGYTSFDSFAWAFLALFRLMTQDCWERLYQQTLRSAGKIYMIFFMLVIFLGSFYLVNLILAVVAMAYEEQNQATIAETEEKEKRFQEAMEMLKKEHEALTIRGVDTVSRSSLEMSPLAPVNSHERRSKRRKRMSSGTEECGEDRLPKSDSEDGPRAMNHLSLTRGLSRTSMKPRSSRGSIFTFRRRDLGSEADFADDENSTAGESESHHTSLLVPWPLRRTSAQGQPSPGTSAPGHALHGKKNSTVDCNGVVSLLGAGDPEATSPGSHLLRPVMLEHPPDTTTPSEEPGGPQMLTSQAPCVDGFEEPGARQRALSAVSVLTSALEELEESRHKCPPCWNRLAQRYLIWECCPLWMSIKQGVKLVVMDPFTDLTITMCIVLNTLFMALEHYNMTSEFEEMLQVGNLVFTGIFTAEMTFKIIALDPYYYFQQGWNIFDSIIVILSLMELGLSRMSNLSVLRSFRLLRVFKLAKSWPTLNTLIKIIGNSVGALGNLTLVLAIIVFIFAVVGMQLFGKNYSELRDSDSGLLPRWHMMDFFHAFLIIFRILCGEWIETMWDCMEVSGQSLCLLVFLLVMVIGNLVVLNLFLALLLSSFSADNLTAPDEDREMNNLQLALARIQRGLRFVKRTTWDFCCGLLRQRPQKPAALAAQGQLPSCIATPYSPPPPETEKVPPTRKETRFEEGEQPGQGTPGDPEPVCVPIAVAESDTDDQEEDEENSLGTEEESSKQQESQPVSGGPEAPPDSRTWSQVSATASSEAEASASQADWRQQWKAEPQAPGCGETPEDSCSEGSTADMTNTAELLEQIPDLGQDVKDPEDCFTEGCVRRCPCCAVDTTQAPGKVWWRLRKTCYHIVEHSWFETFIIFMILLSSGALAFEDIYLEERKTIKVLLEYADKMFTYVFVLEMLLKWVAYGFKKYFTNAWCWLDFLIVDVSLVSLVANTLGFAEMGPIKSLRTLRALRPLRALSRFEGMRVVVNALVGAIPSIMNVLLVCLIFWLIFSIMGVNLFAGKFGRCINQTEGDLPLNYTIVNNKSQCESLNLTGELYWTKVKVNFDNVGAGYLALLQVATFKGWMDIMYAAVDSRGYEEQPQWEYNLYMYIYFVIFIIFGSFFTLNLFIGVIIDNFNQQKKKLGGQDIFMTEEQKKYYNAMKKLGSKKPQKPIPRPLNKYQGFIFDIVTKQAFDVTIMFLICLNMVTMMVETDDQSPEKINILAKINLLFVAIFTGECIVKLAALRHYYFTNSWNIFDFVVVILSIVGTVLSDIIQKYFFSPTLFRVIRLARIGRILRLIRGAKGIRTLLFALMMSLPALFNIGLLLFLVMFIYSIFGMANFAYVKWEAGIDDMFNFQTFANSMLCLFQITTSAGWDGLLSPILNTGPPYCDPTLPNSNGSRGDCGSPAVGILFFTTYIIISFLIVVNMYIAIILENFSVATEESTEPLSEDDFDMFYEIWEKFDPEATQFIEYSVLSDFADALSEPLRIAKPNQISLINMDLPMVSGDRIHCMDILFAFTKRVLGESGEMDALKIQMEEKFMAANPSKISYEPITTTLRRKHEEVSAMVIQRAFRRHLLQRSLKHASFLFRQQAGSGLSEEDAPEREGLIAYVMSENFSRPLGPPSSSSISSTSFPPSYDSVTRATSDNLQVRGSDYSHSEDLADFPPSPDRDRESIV
Method in brief: as §1

[9] = target: hERG (Homo sapiens, UniProt Q12809); test: in vitro; settings: 100% = no change, <100% = inhibition
Method in brief: as §1

[10] = target: T7, Kir2.1 (Homo sapiens, UniProt P63252); test: Ion channel panel (IonWorks Barracuda): Kir2.1; assay type: cell-based; settings: 100% = no change, <100% = inhibition
T7 construct: host or cells: HEK293 or CHO
Method in brief: as §1

[11] = target: T8, Kv1.1 (Homo sapiens, UniProt Q09470); test: cell-based; assay type: cell-based; settings: 100% = no change, <100% = inhibition
T8 construct: host or cells: HEK293 or CHO
Method in brief: as §1

[12] = target: T9, Kv1.2 (Homo sapiens, UniProt P16389); test: cell-based; assay type: cell-based; settings: 100% = no change, <100% = inhibition
T9 construct: host or cells: HEK293 or CHO
Method in brief: as §1

[13] = target: T10, Kv1.3 (Homo sapiens, UniProt P22001); test: cell-based; assay type: cell-based; settings: 100% = no change, <100% = inhibition
T10 construct: host or cells: HEK293 or CHO
Method in brief: as §1

[14] = target: T11, Nav1.7 (Homo sapiens, UniProt Q15858); test: cell-based; assay type: cell-based; settings: 100% = no change; for Activity of Nav1.7 with peptide, expressed as a percentage of the reference compound: peptide at 0.2 μM; for Activity of Nav1.7 with peptide (percentage of the reference compound): peptide at 20 μM
T11 construct: host or cells: HEK293 or CHO
T11 sequence (Q15858 whole entry): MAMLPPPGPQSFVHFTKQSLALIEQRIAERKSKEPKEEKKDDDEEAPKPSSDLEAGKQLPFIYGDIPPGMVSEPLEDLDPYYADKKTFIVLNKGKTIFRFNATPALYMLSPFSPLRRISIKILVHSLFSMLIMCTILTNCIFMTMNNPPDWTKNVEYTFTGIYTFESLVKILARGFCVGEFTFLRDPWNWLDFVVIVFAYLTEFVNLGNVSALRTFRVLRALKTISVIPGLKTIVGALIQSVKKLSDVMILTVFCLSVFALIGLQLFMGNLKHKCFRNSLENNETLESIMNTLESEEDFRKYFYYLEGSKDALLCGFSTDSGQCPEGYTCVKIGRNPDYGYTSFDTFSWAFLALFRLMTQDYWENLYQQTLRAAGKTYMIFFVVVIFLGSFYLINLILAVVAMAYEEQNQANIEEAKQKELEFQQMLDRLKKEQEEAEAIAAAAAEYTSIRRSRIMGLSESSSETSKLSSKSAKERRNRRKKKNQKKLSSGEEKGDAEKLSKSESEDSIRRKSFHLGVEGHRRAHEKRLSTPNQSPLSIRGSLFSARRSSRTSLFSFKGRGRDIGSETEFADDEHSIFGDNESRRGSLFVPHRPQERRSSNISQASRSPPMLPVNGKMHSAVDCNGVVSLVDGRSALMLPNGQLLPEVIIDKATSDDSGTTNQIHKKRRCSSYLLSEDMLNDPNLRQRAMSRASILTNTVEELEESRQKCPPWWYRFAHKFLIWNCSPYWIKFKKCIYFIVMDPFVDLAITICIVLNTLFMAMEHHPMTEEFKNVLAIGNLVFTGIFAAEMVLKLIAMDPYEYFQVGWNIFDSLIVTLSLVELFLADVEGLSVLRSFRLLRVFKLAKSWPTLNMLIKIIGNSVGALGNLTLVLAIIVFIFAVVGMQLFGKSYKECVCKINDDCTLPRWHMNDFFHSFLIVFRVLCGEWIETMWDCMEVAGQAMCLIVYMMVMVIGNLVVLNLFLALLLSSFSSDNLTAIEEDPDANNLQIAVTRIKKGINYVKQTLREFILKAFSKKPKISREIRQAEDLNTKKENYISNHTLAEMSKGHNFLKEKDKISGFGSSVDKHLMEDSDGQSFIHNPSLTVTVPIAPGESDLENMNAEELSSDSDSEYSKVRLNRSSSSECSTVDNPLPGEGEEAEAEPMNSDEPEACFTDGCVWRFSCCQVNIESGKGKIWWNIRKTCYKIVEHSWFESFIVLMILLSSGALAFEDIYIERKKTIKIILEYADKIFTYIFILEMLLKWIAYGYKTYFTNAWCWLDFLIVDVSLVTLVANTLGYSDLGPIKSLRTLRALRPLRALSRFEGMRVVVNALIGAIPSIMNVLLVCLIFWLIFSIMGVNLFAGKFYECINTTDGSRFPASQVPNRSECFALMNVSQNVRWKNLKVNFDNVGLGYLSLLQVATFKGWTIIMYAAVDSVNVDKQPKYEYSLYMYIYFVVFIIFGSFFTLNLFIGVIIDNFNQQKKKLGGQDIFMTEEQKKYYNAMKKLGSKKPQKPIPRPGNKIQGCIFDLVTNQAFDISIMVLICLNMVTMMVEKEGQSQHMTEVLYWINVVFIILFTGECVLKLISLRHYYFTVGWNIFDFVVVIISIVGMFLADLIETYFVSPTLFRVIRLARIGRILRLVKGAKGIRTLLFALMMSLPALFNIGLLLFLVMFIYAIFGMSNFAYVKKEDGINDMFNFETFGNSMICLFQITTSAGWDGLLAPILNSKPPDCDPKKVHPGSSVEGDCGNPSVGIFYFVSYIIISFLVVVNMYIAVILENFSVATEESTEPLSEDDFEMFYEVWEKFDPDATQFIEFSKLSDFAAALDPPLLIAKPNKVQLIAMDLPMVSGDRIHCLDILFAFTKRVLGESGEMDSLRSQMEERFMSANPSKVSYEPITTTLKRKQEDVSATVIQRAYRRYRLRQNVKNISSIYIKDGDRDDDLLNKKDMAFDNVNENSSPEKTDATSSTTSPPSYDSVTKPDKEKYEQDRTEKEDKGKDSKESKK

[15] = target: T12, NR2A (Homo sapiens, UniProt Q12879); test: Ion channel panel (IonWorks Barracuda): NR2A; assay type: cell-based; settings: 100% = no change, <100% = inhibition
T12 construct: host or cells: HEK293 or CHO
Method in brief: as §1

[16] = target: T13, NR2B (Homo sapiens, UniProt Q13224); test: Ion channel panel (IonWorks Barracuda): NR2B; assay type: cell-based; settings: 100% = no change, <100% = inhibition
T13 construct: host or cells: HEK293 or CHO
Method in brief: as §1

[17] = target: T14, TRPA1 (Homo sapiens, UniProt O75762); test: Ion channel panel (IonWorks Barracuda): TRPA1; assay type: cell-based; settings: 100% = no change, <100% = inhibition
T14 construct: host or cells: HEK293 or CHO
T14 sequence (O75762 whole entry): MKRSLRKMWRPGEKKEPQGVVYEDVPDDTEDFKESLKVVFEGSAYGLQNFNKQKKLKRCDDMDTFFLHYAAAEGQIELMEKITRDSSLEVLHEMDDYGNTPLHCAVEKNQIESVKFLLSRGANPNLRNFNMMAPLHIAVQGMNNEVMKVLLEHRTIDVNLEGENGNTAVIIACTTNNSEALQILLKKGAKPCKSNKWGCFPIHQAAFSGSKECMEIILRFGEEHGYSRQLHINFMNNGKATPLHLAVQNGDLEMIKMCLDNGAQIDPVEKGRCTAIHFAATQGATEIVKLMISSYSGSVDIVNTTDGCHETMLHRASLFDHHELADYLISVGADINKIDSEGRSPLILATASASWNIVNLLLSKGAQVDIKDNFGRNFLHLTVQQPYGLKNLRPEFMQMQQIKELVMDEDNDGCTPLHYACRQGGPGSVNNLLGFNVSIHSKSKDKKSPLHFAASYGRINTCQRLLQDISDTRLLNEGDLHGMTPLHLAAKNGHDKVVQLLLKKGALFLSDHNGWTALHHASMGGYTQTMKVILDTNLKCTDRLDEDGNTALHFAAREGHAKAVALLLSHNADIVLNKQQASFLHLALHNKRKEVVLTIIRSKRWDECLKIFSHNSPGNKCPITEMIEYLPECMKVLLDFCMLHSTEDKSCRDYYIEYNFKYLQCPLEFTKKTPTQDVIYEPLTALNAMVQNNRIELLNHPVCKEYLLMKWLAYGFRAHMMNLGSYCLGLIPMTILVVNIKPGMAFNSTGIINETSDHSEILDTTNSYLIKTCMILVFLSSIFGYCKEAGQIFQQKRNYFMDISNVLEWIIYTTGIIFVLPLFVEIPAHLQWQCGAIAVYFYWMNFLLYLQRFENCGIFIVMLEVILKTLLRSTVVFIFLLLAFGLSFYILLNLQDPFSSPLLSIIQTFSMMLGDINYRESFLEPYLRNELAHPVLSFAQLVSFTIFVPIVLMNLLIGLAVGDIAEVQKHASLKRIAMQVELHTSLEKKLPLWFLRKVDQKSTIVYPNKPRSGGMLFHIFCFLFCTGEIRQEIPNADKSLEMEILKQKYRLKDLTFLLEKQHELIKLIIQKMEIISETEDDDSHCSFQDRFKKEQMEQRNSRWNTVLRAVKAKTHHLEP
Method in brief: as §1

[18] = target: T15, TRPV1 (Homo sapiens, UniProt Q8NER1); test: Ion channel panel (IonWorks Barracuda): TRPV1; assay type: cell-based; settings: 100% = no change, <100% = inhibition
T15 construct: host or cells: HEK293 or CHO
Method in brief: as §1

[19] = first of two Nav1.5 columns (probably TP1)
[20] = second of two Nav1.5 columns (probably TP2)
[21] = first of two Nav1.7 columns (probably TP1)
[22] = second of two Nav1.7 columns (probably TP2)

Substance: 14 (GSDRDSCIDKSRCSKYGYYQECQDCCKKAGHNGGTCMFFKCKCA) [compound 14]
- Activity of 5HT3a with peptide (percentage of the reference compound) [1]: 78%
- Activity of 5HT3a with peptide, expressed as a percentage of the reference compound [1]: 96%
- Activity of a3b4 with peptide, expressed as a percentage of the reference compound ([2]; peptide at 0.2 μM): 99%
- Activity of a3b4 with peptide (percentage of the reference compound) ([2]; peptide at 20 μM): 93%
- Activity of a4b2 with peptide, expressed as a percentage of the reference compound ([3]; peptide at 0.2 μM): 106%
- Activity of a4b2 with peptide (percentage of the reference compound) ([3]; peptide at 20 μM): 81%
- Activity of Cav2.1 with peptide, expressed as a percentage of the reference compound ([4]; peptide at 0.2 μM): 118%
- Activity of Cav2.1 with peptide (percentage of the reference compound) ([4]; peptide at 20 μM): 111%
- Activity of Cav2.2 with peptide, expressed as a percentage of the reference compound ([5]; peptide at 0.2 μM): 129%
- Activity of Cav2.2 with peptide (percentage of the reference compound) ([5]; peptide at 20 μM): 95%
- Activity of Kv2.1 with peptide, expressed as a percentage of the reference compound ([6]; peptide at 0.2 μM): 109%
- Activity of Kv2.1 with peptide (percentage of the reference compound) ([6]; peptide at 20 μM): 93%
- Activity of GABA with peptide, expressed as a percentage of the reference compound ([7]; peptide at 0.2 μM): 107%
- Activity of GABA with peptide (percentage of the reference compound) ([7]; peptide at 20 μM): 120%
- Activity of Nav1.5 with peptide, expressed as a percentage of the reference compound [8, 19]: 85%
- Activity of Nav1.5 with peptide, expressed as a percentage of the reference compound [8, 20]: 82%
- Activity of Nav1.5 with peptide (percentage of the reference compound) [8, 19]: 94%
- Activity of Nav1.5 with peptide (percentage of the reference compound) [8, 20]: 97%
- Activity of hERG with peptide, expressed as a percentage of the reference compound ([9]; peptide at 0.2 μM): 82%
- Activity of hERG with peptide (percentage of the reference compound) ([9]; peptide at 20 μM): 1%
- Activity of Kir2.1 with peptide, expressed as a percentage of the reference compound ([10]; peptide at 0.2 μM): 95%
- Activity of Kir2.1 with peptide (percentage of the reference compound) ([10]; peptide at 20 μM): 79%
- Activity of Kv1.1 with peptide, expressed as a percentage of the reference compound ([11]; peptide at 0.2 μM): 79%
- Activity of Kv1.1 with peptide (percentage of the reference compound) ([11]; peptide at 20 μM): 99%
- Activity of Kv1.2 with peptide, expressed as a percentage of the reference compound ([12]; peptide at 0.2 μM): 73%
- Activity of Kv1.2 with peptide (percentage of the reference compound) ([12]; peptide at 20 μM): 34%
- Activity of Kv1.3 with peptide, expressed as a percentage of the reference compound ([13]; peptide at 0.2 μM): 87%
- Activity of Kv1.3 with peptide (percentage of the reference compound) ([13]; peptide at 20 μM): 82%
- Activity of Nav1.7 with peptide, expressed as a percentage of the reference compound [14, 21]: 83%
- Activity of Nav1.7 with peptide, expressed as a percentage of the reference compound [14, 22]: 89%
- Activity of Nav1.7 with peptide (percentage of the reference compound) [14, 21]: 72%
- Activity of Nav1.7 with peptide (percentage of the reference compound) [14, 22]: 65%
- Activity of NR2A with peptide, expressed as a percentage of the reference compound ([15]; peptide at 0.2 μM): 107%
- Activity of NR2A with peptide (percentage of the reference compound) ([15]; peptide at 20 μM): 95%
- Activity of NR2B with peptide, expressed as a percentage of the reference compound ([16]; peptide at 0.2 μM): 123%
- Activity of NR2B with peptide (percentage of the reference compound) ([16]; peptide at 20 μM): 72%
- Activity of TRPA1 with peptide, expressed as a percentage of the reference compound ([17]; peptide at 0.2 μM): 106%
- Activity of TRPA1 with peptide (percentage of the reference compound) ([17]; peptide at 20 μM): 66%
- Activity of TRPV1 with peptide, expressed as a percentage of the reference compound ([18]; peptide at 0.2 μM): 133%
- Activity of TRPV1 with peptide (percentage of the reference compound) ([18]; peptide at 20 μM): 92%
